Patent US7063946B2, “Methods, reagents, kits and apparatus for protein function analysis” (Meso Scale Technologies, LLC., priority 2001, dated 2006)
Where no end group is shown, it is not given here. [ ]: non-standard residue; d: D form. pY = N[C@@H](Cc1ccc(OP(=O)(O)O)cc1)C(=O)O

Target: T1, EGFR (Homo sapiens, UniProt P00533)
T1 construct: autophosphorylated tyrosines (self-phosphorylated with ATP before use); purchased Sigma Chemical Co, MO
Test: EGFR binding assay, bound EGFR detected by its tyrosine kinase activity towards pEY
Conditions: Grb2 plasmid, +EGFR, in presence of the peptide
Experimental: Proteins were produced in an in vitro transcription and translation reaction using 40–100 ng of plasmid DNA. […] The unbound components of the reaction containing endogenous kinases were removed by three washes with TT-buffer (25 mM Tris-HCl buffer pH 7.4 and 0.004% Triton), two five minutes washings with high-salt wash buffer (25 mM Tris-HCl buffer pH 7.4, 0.004% Triton, 1M NaCl and 5 mM DTT) and 3 more washes with TT-buffer. […] The unbound EGFR was washed by 4 times washing with TT-buffer (25 mM Tris-HCl buffer pH 7.4 and 0.004% Triton). The amount of EGFR bound to the reticulocyte lysate expressed protein was determined by detecting the kinase activity of EGFR. A tyrosine kinase substrate, 5 nM pEY (poly Glu-Tyr, Sigma, MO) was added in a 50 μl reaction containing 5 mM MgCl2, 5 mM MnCl2, 100 μM ATP, 25 mM Tris-HCl buffer pH 7.4, 0.05 mM Na3VO4, 0.004% TritonX-100, 2 mM DTT and EDTA-free protease inhibitor (Roche Molecular Biochemicals). This mixture was incubated with shaking at room temperature for 1 or 12 hours to allow phosphorylation of the pEY substrate by the EGFR. […]
The unbound reagents were removed by one time washing with TT-buffer (25 mM Tris-HCl buffer pH 7.4 and 0.004% Triton), and the TAG label was detected in presence of 150 μl IPR assay buffer (0.4 mM Gly-Gly buffer, pH 7.8, 1 mM EDTA, 0.1 M TPA). The ECL signals were measured using an imaging plate reader.

ECL signal | Substance
34,055 | Peptide: un-phosphorylated form of the EGFR 1063–1081 peptide (SEQ ID NO: 8) (LPVPEYINQSVPKRPAGSVC; Synthetic Fragment of EGFR-Y1068)
7,348 | LPVPE(p)YINQSVPKRPAGSVC (LPVPE[pY]INQSVPKRPAGSVC) [Phosphopeptide]
